Laboratory results reported in US20160362487A1 (Regeneron, published 2016).

T1: cynomolgus monkey IL-33 expressed with a C-terminal hexahistidine tag (cynomolgus monkey)
T1 construct: also called MfIL-33-6His; Mf-IL-33-6His
T1 chain: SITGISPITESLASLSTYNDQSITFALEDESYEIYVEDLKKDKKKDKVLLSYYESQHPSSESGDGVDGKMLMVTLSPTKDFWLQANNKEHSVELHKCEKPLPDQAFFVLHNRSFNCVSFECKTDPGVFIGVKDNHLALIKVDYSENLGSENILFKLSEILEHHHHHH

T2: human IL-33 (R&D Systems, #3625-IL-010/CF) (human, UniProt O95760 112-270)
T2 construct: Commercial recombinant protein; also called hIL-33; interleukin-33
T2 sequence (looked up): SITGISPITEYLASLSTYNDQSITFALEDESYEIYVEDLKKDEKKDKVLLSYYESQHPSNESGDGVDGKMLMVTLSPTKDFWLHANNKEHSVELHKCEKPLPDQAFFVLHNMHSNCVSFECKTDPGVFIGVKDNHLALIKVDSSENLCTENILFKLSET


Assays:
[1] = molecular target: T1, cynomolgus monkey IL-33 expressed with …; assay: BLI; mAb-1 on captured MfIL-33-6His
Description: (§1) Binding competition between a panel of different anti-IL-33 monoclonal antibodies was determined using a real time, label-free bio-layer interferometry assay on an Octet® HTX biosensor (ForteBio, A Division of Pall Life Sciences). The experiment was performed at 25° C. using a buffer of 0.01M HEPES pH7.4, 0.15M NaCl, 3 mM EDTA, 0.05% v/v Surfactant Tween-20, and 0.1 mg/ml BSA (HBS-ET kinetics buffer) with the plate shaking at a speed of 1000 rpm. […] The antigen-captured biosensors were then saturated with a first anti-IL-33 monoclonal antibody (subsequently referred to as mAb-1) by immersion into wells containing 50 μg/mL solution of mAb-1 for 5 minutes. The biosensors were then dipped into wells containing a 50 μg/mL solution of a second anti-IL-33 monoclonal antibody (subsequently referred to as mAb-2) for 4 minutes. The biosensors were washed in HBS-ET kinetics buffer in between every step of the experiment. The real-time binding response was monitored during the experiment, and the maximum binding response for each binding step was recorded. The response of mAb-2 binding to MfIL-33-6His pre-complexed with mAb-1 was measured, and competitive/non-competitive behavior of different anti-IL-33 monoclonal antibodies with respect to each other was determined.

[2] = molecular target: T3, pre-formed complex of hIL-33 and captured hST2-MMH (human, UniProt O95760 112-270); assay: SPR 25C, 100 nM mAb over hIL-33/hST2-MMH complex
T3 construct: Ligand-receptor complex on the sensor: hST2-MMH captured by anti-myc mAb and saturated with 100 nM hIL-33; also called hIL-33 pre-complexed with hST2-MMH
Description: The ability of anti-IL-33 antibodies to bind to a pre-formed complex of IL-33 with ST2 was tested using Biacore T-200 instrument equipped with a real-time surface plasmon resonance biosensor. The experiment was performed at 25° C. with a running buffer composed of 0.01M HEPES pH 7.4, 0.15M NaCl, 3 mM EDTA, and 0.05% v/v Surfactant Tween-20 (HBS-ET). […] The captured hST2-MMH surface was then saturated by injecting 100 nM of human IL-33 (hIL-33; R&D Systems, #3625-IL-010/CF) for 3 minutes followed by a 3 minute injection of a 100 nM solution of the anti-IL-33 monoclonal antibody. The real-time binding response was monitored during the entire course of the experiment, and the observed binding response at 3 minutes after injection of anti-IL-33 antibody to the pre-formed complex of hIL-33 and captured hST2-MMH was recorded and tabulated and shown in Table 7. No non-specific binding of anti-IL-33 monoclonal antibody to the anti-myc tag capture surface was observed.

[3] = molecular target: T1, cynomolgus monkey IL-33 expressed with …; assay: cell-based or functional assay
[4] = molecular target: T2, human IL-33 (R&D Systems, …); assay: SPR 37C pH7.4, mAb captured
Description: (§2) Equilibrium dissociation constants (KD values) for IL-33 binding to purified anti-IL-33 monoclonal antibodies were determined using a real-time surface plasmon resonance biosensor using a Biacore 4000 instrument. The Biacore sensor surface was first derivatized by amine coupling with either a polyclonal rabbit anti-mouse antibody (GE, # BR-1008-38) or with a monoclonal mouse anti-human Fc antibody (GE, # BR-1008-39) to capture anti-IL-33 monoclonal antibodies expressed with mouse or with human IgG4 constant regions, respectively. All Biacore binding studies were performed in 0.01M ADA pH 7.4, 0.15M NaCl, 3 mM EDTA, and 0.05% v/v Surfactant Tween-20 (ABS-ET running buffer). […] Association of either hIL-33 or MfIL-33-6His to the captured monoclonal antibody was monitored for 4 minutes and their dissociation in ABS-ET running buffer was monitored for 10 minutes. The effect of reduced pH on the binding of each anti-IL-33 antibody to either hIL-33 or MfIL-33-6His was studied using an in-line pH chase assay format in 0.01M ADA pH 6.0, 0.15M NaCl, 3 mM EDTA, and 0.05% v/v Surfactant Tween-20 (ABS-ET pH6 buffer). To achieve this, association of either hIL-33 or MfIL-33-6His to the captured monoclonal antibody was monitored for 4 minutes in ABS-ET running buffer. Following a 30 second dissociation of either hIL-33 or MfIL-33-6His in ABS-ET running buffer, ABS-ET pH6 buffer was injected for 3 minutes, and the analyte dissociation under the low-pH conditions was measured. All the binding kinetic experiments were performed at both 25° C. and 37° C. Kinetic association (kₐ) and dissociation (kd) constants were determined by fitting the real-time sensorgrams to a 1:1 binding model using Scrubber 2.0c curve fitting software. Binding dissociation equilibrium constants (KD) and dissociative half-lives (t½) were calculated from the kinetic rate constants as: […]

[5] = molecular target: T1, cynomolgus monkey IL-33 expressed with …; assay: SPR 37C pH7.4, mAb captured
Description: as §2

[6] = molecular target: T1, cynomolgus monkey IL-33 expressed with …; assay: BLI; captured MfIL-33-6His, mAb-1 step with Buffer
Description: as §1

Row | mAb-1 Binding (nm) [1] [nm] | Antibody Binding Response (RU) [2] [RU] | IC50, inhibition of 5 pM MfIL-33-6His activation of HEK293/hST2/NFkB-luciferase cells [3] [M] | Kd [4] [nM] | koff [4] [s⁻¹] | kon [4] [M⁻¹ s⁻¹] | t½ [4] [min] | Kd [5] [nM] | koff [5] [s⁻¹] | kon [5] [M⁻¹ s⁻¹] | t½ [5] [min] | mAb-2 Binding to the Pre-complex of mAb-1 & MfIL-33-6xHis [6] [nm] | Binder
1 | 0.58 | -1 | 4.8e-09 | 0.938 | 0.00114 | 1.21e+06 | 10 | 5.08 | 0.00607 | 1.2e+06 | 1.9 | 0.29 | H4H9671P (antibody, human IgG4, V domains shown, Human IgG4 Fc (H4H)) VH: EVQLVESGGGLVQPGGSLRLSCAASGFTLRSYFMTWVRQVPGKGLEGVSAISGISGGTYYTDSVKGRFTISRDNSKNTLFLQMNSLRAEDTAVYFCARTVYSSSYYGGFQHWGQGTLVTVSS VL: DIQMTQSPSSVSVSVGDRVTITCRASQGISSWLAWYQQKPGKAPKLLIYVASSLQSGVPSRFSGSGSGTDFTLTISSLQPEDFATYYCQQTNSFPLTFGGGTKVEIK
2 | 0.5 | -4 | 4.9e-08 | 2.03 | 0.000962 | 473000 | 12 | 7.04 | 0.00347 | 493000 | 3.3 | 0.25 | H1M9559N (antibody, mouse IgG1, V domains shown, Human variable domains, mouse IgG1 Fc (H1M)) VH: QVQLVESGGGVVQPGRSLRLSCAASGFTFSSYGMHWVRQAPGKGLEWVAVIWYDGRNKYYTDSVKGRFTISRDNSKNTLYLQMDSLRAEDTAVYYCARERYISSYYGGFDPWGQGALVTVSS VL: DIQMTQSPSSVSASVGDRVTITCRASQGISSWLAWYQQKPGKAPKVLIYAASSLQSGVPSRFSGSGSGTDFTLTISSLQPEDFATYYCQQANSFPFTFGPGTKLDIK
3 | 0.62 | -1 | 8.4e-09 | 0.922 | 0.00128 | 1.38e+06 | 9 | 7.7 | 0.0144 | 1.87e+06 | 0.8 | 0.29 | H4H9676P (antibody, human IgG4, V domains shown, Human IgG4 Fc (H4H)) VH: EVQLVESGGGLVQPGGSLRLSCSASGFTFSSYAMNWVRQAPGKGLEWVTAISGSGGGTYYADSVKGRFTISRDNSKNSLFLQLNSLRAEDTAVYYCAKQTYTSSWYGGFDIWGQGTMVTVSS VL: DIQMTQSPSSVSASVGDRVTITCRASQGFSSWLAWYQQIPGKAPKLLIYAASRLQSGVPSRFRGSGSGTDFTLTISSLQPEDFATYYCQQANSFPLTFGGGTKVEIK
4 | 0.52 | -1 | 4.1e-09 | 0.411 | 0.000872 | 2.12e+06 | 13 | 4.81 | 0.00491 | 1.02e+06 | 2.4 | 0.31 | H4H9675P (antibody, human IgG4, V domains shown, Human IgG4 Fc (H4H)) VH: EVQLVESGGNLEQPGGSLRLSCTASGFTFSRSAMNWVRRAPGKGLEWVSGISGSGGRTYYADSVKGRFTISRDNSKNTLYLQMNSLSAEDTAAYYCAKDSYTTSWYGGMDVWGHGTTVTVSS VL: DIQMTQSPSSVSASVGDRVTITCRASQGIFSWLAWYQQKPGKAPKLLIYAASSLQSGVPSRFSGSGSGTDFTLTISSLQPEDFAIYYCQQANSVPITFGQGTRLEIK
5 | 0.56 | -1 | 2e-08 | 1.05 | 0.00115 | 1.09e+06 | 10 | 13.7 | 0.013 | 946000 | 0.9 | 0.3 | H4H9672P (antibody, human IgG4, V domains shown, Human IgG4 Fc (H4H)) VH: EVQLVESGGGLVQPGGSLRLSCAASGFTLRSYVMYWVRQGPGKGLEGVSGISGSSGGTYYTDSVKGRFTISRDNSKNTLFLQMNSLRAEDTAVYFCARSVYSTTWYGGFQHWGQGTLVTVSS VL: DIQMTQSPSSVSVSVGDRVTITCRASQVISSWLAWYQLKPGKAPKLLIYAASSLQSGVPSRFSGSGSGTDFTLTISGLQPEDFAVYYCQQTNSFPLTFGGGTKVEIK
